# The supplement of paper PMC9732359
# ± gives the uncertainty stated by the source.
# Assay: protein stability index of a GFP-peptide fusion (yeast GPS) (PSI 1-4); higher = more stable; sorted into four equal gates, so the index is relative within each strain
# In short: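 Tiled 17-residue peptides from yeast proteins were fused downstream of GFP on a plasmid that also expresses Cherry, and the pooled library was carried in yeast. Mid-log cultures grown in leucine-free medium were sorted into four equal gates by GFP/Cherry fluorescence ratio. Plasmids from each gate were PCR-amplified and Illumina-sequenced, and reads were assigned to strains by barcodes. Each peptide's protein stability index is the sum, over gates, of the gate's read frequency multiplied by its gate number.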
Sequence,protein stability index (doa10∆),protein stability index (pdr5∆),protein stability index (ubr1∆),protein stability index (san1∆)
VDNVTLESYKTQAKKLY [SRP72],3.02 ± 0.11,2.87 ± 0.14,2.89 ± 0.11,–
KSTDNSAIRQVFERFKT [IRR1],2.21 ± 0.046,2.7 ± 0.046,2.8 ± 0.045,2.19 ± 0.062
VRAVNTGMEPGKTSFFQ [RPP0],2.58 ± 0.16,2.78 ± 0.15,2.42 ± 0.25,2.8 ± 0.18
VTKQSELNSSEDILEDM [SMC1],3.37 ± 0.065,3.25 ± 0.059,3.18 ± 0.049,3.22 ± 0.041
NERELNVFARLSRLLSL [RPC82],2.02 ± 0.16,2.07 ± 0.11,2.5 ± 0.06,2.79 ± 0.13
LQEKNSGNLPLNELSAK [RPN13],3.19 ± 0.072,3.2 ± 0.065,3.17 ± 0.063,3.08 ± 0.038
SYHNGNLKGRPYTGWVD [FAS2],2.07 ± 0.096,3.13 ± 0.1,2.83 ± 0.094,3.08 ± 0.1
RKRKCGHTNQLRPKKKL [RPL40A],2.84 ± 0.035,2.95 ± 0.032,3.033 ± 0.026,3.017 ± 0.024
DESSGTSRIDEEKPGLI [SMC4],2.89 ± 0.058,3.12 ± 0.047,3.08 ± 0.065,2.94 ± 0.05
RKFKSRRCDDMLYYIQN [POP4],2.74 ± 0.069,2.98 ± 0.088,2.85 ± 0.048,2.81 ± 0.062
TKHLMPQDLTFNAGSNP [RPB7],–,3.62 ± 0.2,2.79 ± 0.24,3.22 ± 0.26
SINKNNKEMHTDLGKDI [SSN2],–,2.07 ± 0.22,3.48 ± 0.14,3.21 ± 0.12
KPELRKKVMPAIVVRQA [RPL23A],2.83 ± 0.14,2.87 ± 0.086,2.97 ± 0.063,2.61 ± 0.16
RLIDSMKQYSYLMDSKN [RRI1],2.62 ± 0.21,2.41 ± 0.14,2.87 ± 0.18,–
NEIKQLGSDSSDGHNSE [SRB4],2.6 ± 0.072,2.8 ± 0.084,3 ± 0.09,2.31 ± 0.078
FLTNELIRLQMEKLDAK [SWI3],2.97 ± 0.11,2.98 ± 0.085,2.96 ± 0.078,3.14 ± 0.051
MAIEIINDIRDDDIEKQ [YCG1],–,3.07 ± 0.16,3.27 ± 0.14,3.19 ± 0.11
KKEYIELDILNKGWKLQ [SRB4],2.29 ± 0.13,3.38 ± 0.17,2.94 ± 0.16,2.76 ± 0.089
TESNELIQKLQNSANNN [IRR1],2.93 ± 0.11,3.02 ± 0.082,3.09 ± 0.17,3.24 ± 0.053
DAGVTFNKEQLNKFKKA [ECM29],1.83 ± 0.053,2.13 ± 0.11,2.36 ± 0.059,1.55 ± 0.14
PKDTSAATMTSAPPPAL [RGR1],2.49 ± 0.1,2.59 ± 0.1,2.85 ± 0.097,2.51 ± 0.069
PMASSSSFGSESLTFNE [SWI1],3.15 ± 0.043,3.16 ± 0.041,3.099 ± 0.029,3.14 ± 0.035
FSKIAEYYRIQKQLPQK [ESC2],3.18 ± 0.16,2.99 ± 0.15,3.19 ± 0.17,3.26 ± 0.088
EYYRIQKQLPQKTRVKL [ESC2],2.79 ± 0.055,2.77 ± 0.05,2.82 ± 0.039,2.86 ± 0.05
PTFVEFILIPLYKIFSY [SNU114],1.98 ± 0.045,1.73 ± 0.054,1.63 ± 0.044,1.62 ± 0.073
NTQLHGPSATDPETTAT [RGR1],3.01 ± 0.094,2.89 ± 0.088,2.81 ± 0.068,2.65 ± 0.073

Sequence,protein stability index (doa10∆),protein stability index (pdr5∆),protein stability index (ubr1∆),protein stability index (san1∆)
GYLFKVSALDKCIKYSE [ECM29],3.08 ± 0.13,2.11 ± 0.09,2 ± 0.074,1.95 ± 0.11
MFLTRSEYDRGVSTFSP [PUP2],3.58 ± 0.21,–,3.34 ± 0.11,–
ASRSQLEKGEIELSDGS [YJL039C/NUP192],3.06 ± 0.081,3.02 ± 0.072,3 ± 0.042,2.8 ± 0.07
SKDLRSVWKPIAAIIGR [IRR1],2.56 ± 0.06,2.15 ± 0.032,2.58 ± 0.038,2.75 ± 0.049
GAINVANCQRQLTEFWT [NNF1],3.2 ± 0.16,2.76 ± 0.13,–,2.71 ± 0.21
SAWIWPMDEETKLYFDV [RPC25],2.17 ± 0.075,2.4 ± 0.11,2.41 ± 0.15,2.49 ± 0.092
LGDMAVCFNNLVDENTD [YCS4],2.61 ± 0.068,2.8 ± 0.077,2.85 ± 0.064,2.72 ± 0.076
LDKQIEELVEAIVLPMK [RPT5],2.97 ± 0.15,3.02 ± 0.15,3.43 ± 0.15,3.45 ± 0.12
LTLRKAKAPSGLDQSRI [FAS1],3.05 ± 0.12,2.98 ± 0.11,3.13 ± 0.081,3.17 ± 0.12
SRQKSGLFDSFTNGVLA [YML031W/NDC1],1.68 ± 0.064,1.5 ± 0.065,1.49 ± 0.06,1.92 ± 0.12
HDIIEGINAGEIEIPEN [RPL12A],2.75 ± 0.071,2.52 ± 0.072,2.4 ± 0.06,2.5 ± 0.077
TSALSELSGLISSAKLD [QCR2],1.69 ± 0.1,2 ± 0.083,1.94 ± 0.11,1.7 ± 0.13
FKHGPMSLINDAMVTRT [SMD2],2.9 ± 0.11,2.43 ± 0.09,3.01 ± 0.085,2.76 ± 0.093
VPHSHPSDMVIPDHLAE [SNF12],2.04 ± 0.047,2.39 ± 0.047,2.31 ± 0.03,2.22 ± 0.068
QVMEEKLDENNAQLSCI [PUP2],3.31 ± 0.086,2.69 ± 0.27,3.17 ± 0.17,2.86 ± 0.19
ISPKGGRRISENGQRDL [RPS19A],–,2.81 ± 0.2,2.86 ± 0.11,3.19 ± 0.13
LIRFDESITKAMEFIFG [SMC2],2.45 ± 0.082,2.52 ± 0.17,–,2.35 ± 0.16
YSVYLIHEIRLNTLNNV [SIR3],1.85 ± 0.089,1.99 ± 0.067,2.34 ± 0.048,2.25 ± 0.1
LLKLERKKTEAVARLKS [SNF2],1.89 ± 0.068,2.14 ± 0.083,1.97 ± 0.061,2.06 ± 0.091
QAHTLYNSVRPFGVSTI [PRE10],2.71 ± 0.083,2.74 ± 0.071,2.6 ± 0.042,2.92 ± 0.095
KYLPHAILKLLENMPHP [PRP8],2 ± 0.081,1.46 ± 0.056,1.61 ± 0.042,1.67 ± 0.1
KDGLKLVGSWKKDRATG [RPO21],3.58 ± 0.2,–,–,3.33 ± 0.15
AGNIKCRNDAVNWLAYT [BRR2],3.13 ± 0.05,3.49 ± 0.039,3.24 ± 0.035,3.16 ± 0.034
TKFSKLIGRPPLLVPGM [FAS1],1.16 ± 0.071,2 ± 0.064,1.65 ± 0.041,1.91 ± 0.078
LSSGESNEIKVTNDLDT [SIR4],2.94 ± 0.16,2.97 ± 0.12,2.52 ± 0.08,2.88 ± 0.22
DPLRIAMKELAEKKIPL [RPO26],–,3.26 ± 0.18,–,–
